Tested on: alpha-lactalbumin
Test: Monolith mediated proteolysis with covalently grafted proteinase K, HPLC
Assay type: biochemical
Settings: 65 °C for 2 hrs plus 30 minutes; HPLC (Figure 4)
Procedure: 160 mg/mL EDAC stock was dissolved in dry DMSO. 35 µL of this stock was added to 15 µL of 200 mM MES pH 7.0 and 20 µL 10mg/mL Proteinase K in PBS. The solution was added to a 20 mg disc carboxy monolith polymeric matrix (1:2:1 TEGDMA:EGDMA:HEMA plus 2.0% MAA). The disc was incubated for 1 hr at room temperature. The reaction was then quenched with 5 µL of 30 mg/mL glycine, pH 7.0 for 15 minutes at room temperature. The disc was then washed 3x in 1x PBS and held in 1X PBS for 4 days at 4 °C.
Alpha-lactalbumin substrate was dissolved at 10 mg/mL in 1x PBS. The proteinase K coupled disc was cut into equal 8 pie-shaped pieces. For each assay, one pie piece was placed point side down into a 0.5 mL microfuge tube. For each tube, 27 µL 10mg/mL lactalbumin solution or 1X PBS, 3 µL 5mM CaSO4, was added. The tubes were closed and incubated at 65 °C for 2 hrs. An additional 50 µL deionized distilled water, was added, the tubes closed, and incubated at 65 °C for an additional 30 minutes.

degradation of alpha-lactalbumin: fully degraded
B1: proteinase K: Proteinase K covalently grafted with EDAC to carboxy monolith disc (1:2:1 TEGDMA:EGDMA:HEMA plus 2.0% MAA) (conjugate, UniProt P06873 106-384, looked up)
Proteinase K: AAQTNAPWGLARISSTSPGTSTYYYDESAGQGSCVYVIDTGIEASHPEFEGRAQMVKTYYYSSRDGNGHGTHCAGTVGSRTYGVAKKTQLFGVKVLDDNGSGQYSTIIAGMDFVASDKNNRNCPKGVVASLSLGGGYSSSVNSAAARLQSSGVMVAVAAGNNNADARNYSPASEPSVCTVGASDRYDRRSSFSNYGSVLDIFGPGTSILSTWIGGSTRSISGTSMATPHVAGLAAYLMTLGKTTAASACRYIADTANKGDLSNIPFGTVNLLAYNNYQA
modifications: EDAC-grafted to carboxy monolith disc
